Data: patent publication US6660837B1, “Modified protein derived from protein kinase N” (Kirin Beer Kabushiki Kaisha, priority 1995, dated 2003)
“Also recorded” adds a separate entry of the source. Blank lines part the entries; values can stand above or below the substance they belong to.

Experiments:
variant RhoA^Val14 = target: T1, variant RhoA^Val14 (Homo sapiens, UniProt P61586, G14V); experiment: Yeast two-hybrid, N-terminal region of PKN with RhoA^Val14; assay type: binding; details: yeast L40, histidine requirement
T1 construct: expressed in transfected cells; host or cells: yeast strain L40
Text: (§1) According to a method described in A. B. Vojetk et al. Cell 74, 205-214 (1993), wild type H-Ras, wild type RhoA with C-terminal CAAX structure removed (S. Ando et al. Jikken Igaku 11, 1973-1980 (1993)), and variant RhoA^Val14cDNA fragment, were introduced into pBTM116 vector (A. B. Vojetk et al, ibid.) to construct vectors (designated as pBTM116-RasWT, pBTM116-RhoWT, and pBTM116-Rho^Val14), for expression thereof and LexA as fusion protein in yeast cells, which were then transformed into yeast (strain L40).
(§2) cDNA in N-terminal region (the amino acid sequence 7-155 in SEQ ID NO: 1) of PKN was introduced into BamHI site of pACT vector ([…] Library Kit, manufactured by Clontech Laboratories, Inc.) to construct a vector (designated as pACTIIHK-PKN-N) for expression thereof and GAL4 as fusion protein in yeast cells. The cDNA fragment, used here, corresponding to the N-terminal region of PKN was prepared as described in Example 4 (1).
(§3) Yeast transformed with pBTM116-RasWT, pBTM116-RhoWT, and pBTM116-Rho^Val14 was further transformed with pACTIIHK-PKN-N. Transformants were screened based on histidine requirement (A. B. Vojetk et al, Cell 74, 205-214 (1993).

wild type RhoA = target: T2, wild type RhoA (Homo sapiens, UniProt P61586); experiment: Yeast two-hybrid, N-terminal region of PKN with wild type RhoA; assay type: binding; details: yeast L40, histidine requirement
T2 construct: expressed in transfected cells; host or cells: yeast strain L40
Text: as §1, §2, §3

RhoA^Val14 CLVL^− = target: T3, RhoA^Val14 CLVL^− (Homo sapiens, UniProt P61586, G14V); experiment: Yeast two-hybrid, truncated PKN with RhoA^Val14CLVL^−; assay type: binding; details: yeast L40
T3 construct: expressed in transfected cells; host or cells: yeast strain L40
Text: The cDNA fragments encoding various length of human PKN were inserted into the vector pBTM116 (Example 7) in frame with the upstream LexA DNA-binding domain sequences or the vector pVP16 (Example 7) in frame with the upstream VP16 transcription activation domain sequences. The cDNA fragments encoding human RhoA, RhoA^Val14, and RhoA^Ala37 were obtained by digesting pGEX-RhoA, pGEX-RhoA^Val14, and pGEX-RhoA^Ala37 (Example 1) with restriction enzymes, respectively, then cloned into pBTM116 and pVP16.
The expression plasmids were transfected into yeast L40 cells and plated on semi-solid media lacking tryptophan and leucine. Interaction was examined using a filter lift assay for the β-galactosidase activity in the same manner as in Example 6. […]

α-actinin (HuActSkl) = experiment: Yeast two-hybrid, regions of PKN with HuActSkl; assay type: binding, human
Method: Schemes of the fusion constructs for human PKN, human skeletal muscle type α-actinin (HuActSkl , designated in (Beggs, A., et al., J. Biol. Chem. 267, 9281-9288 (1992)) and non-skeletal muscle type α-actinin (HuActNm, designated in (Beggs, A., et al., J. Biol. Chem. 267, 9281-9288 (1992)) used in this study are shown in FIGS. 41 and 42. Screening of proteins, which bind to the N-terminal region of human PKN (the amino acid sequence 1-540, this region being designated as “PKNNl”), was performed as described in Example 6. Primary positive clones were recovered and retransfected into the original yeast host strain YGH1 (a, ura3-52, his3-200, ade2-101, lys2-801, trpl-901, leu2-3, Can^r, gal4-542, gal80-538, LYS2::gal1uas-gal1tala-HIS3, URA3::gall-lacZ) in combination with the Gal4bd-PKN or the Gal4bd-p53 tumor suppresser. Plasmids that activated marker expression only in the presence of PKN were analyzed further.
The two-hybrid methods was employed to identify the region of PKN that interacted with HuActSkl , and this region was compared with the binding site for RhoA, which binds to PKN, in vitro and in vivo. […] This region corresponds to the second leucine zipperlike sequence and the N-terminal region adjacent thereto, which is conserved through evolution in vertebrates (Mukai, H., et al., Biochim. Biophys. Acta 1261, 296-300 (1995)). […]

[1] = target: T4, binding of PKN to GTPγS.GST-RhoA (Homo sapiens, UniProt P61586); experiment: Inhibition of binding between in vitro translated PKN and GTPγS.GST-RhoA by synthetic peptides; details: concentration-dependent
T4 construct: made in house; PKN 1-474: in vitro translation
Method: A protein corresponding to the amino acid sequence 1-474 in SEQ ID NO: 1) was prepared by in vitro translation. GTPγS or GDP.GST-RhoA (15 nM) was incubated with PKN (1.5 μl) prepared by in vitro translation in a total volume of 200 μl of binding buffer (20 mM Tris/HCl at pH 7.5, 1 mM EDTA, 0.5 mM DTT, 5 mM MgCl2 and 1 μg/ml leupeptin) for 60 min at 4° C. Then 40 μl of glutathione-Sepharose 4B (Pharmacia Biotech) preincubated in binding buffer containing 10 mg/ml E. coli extracts to block non-specific binding was added, and the mixture was rotated for 30 min at 4° C. Unbound proteins were removed by four washes with binding buffer containing 0.2% Nonidet P-40 and 50 mM NaCl, and by two washes with binding buffer. Specifically bound proteins were eluted with binding buffer containing 10 mM reduced glutathione and subjected to SDS-PAGE, and the gel was subjected to autoradiography.
Synthetic peptide fragments for potential RhoA binding region of PKN were synthesized with an automated peptide synthesizer (Applied Biosystems, model 431). An experiment using synthetic peptides wes carried out using the peptides in various concentrations in 200 μl of binding buffer.

PKN in Swiss 3T3 cells = assay type: cell-based; details: 200 ng/ml for 10 min
[2] = target: T5, binding of full-length α-actinin (HuActSkl) to GST-PKNN1 (Homo sapiens, UniProt P35609); experiment: Effect of PI4,5P2 on in vitro binding between α-actinin and PKN
T5 construct: 2 μl of in vitro translated full-length HuActSkl was mixed with 5 μg of GST-PKNN1 fusion protein; made in house; host or cells: HuActSkl: rabbit reticulocyte lysate; GST-PKNN1: E. coli
Method: For analysis of the effect of phosphatidylinositol 4,5 bisphosphate (PI4, 5P2) (Boehringer Mannheim) on the binding between α-actinin and PKN, 2 μl of in vitro translated full-length HuActSkl was mixed with 5 μg of GST-PKNN1 fusion protein or with 25 μg of GST alone in 400 μl of buffer P (20 mM Tris/HCl at pH 7.5, 0.5 mM DTT, 120 mM NaCl, 1 mM EDTA) and incubated for 1 hr at room temperature with or without PI4, 5P2. After addition of 25 μl of glutathione-Sepharose 4B pretreated with E. coli extract, the binding reaction was continued for additional 30 min at 4° C. The glutathione-Sepharose 4B was then washed four times in buffer P containing 0.01% Triton X-100. Bound proteins were eluted with GST elution buffer and were subjected to SDS-PAGE. The binding was visualized and quantitated by an imaging analyzer (FUJI BAS1000).

Substance: amino acid sequence 33-111: truncated human PKN, amino acid sequence 33-111 in SEQ ID NO: 1, Rho protein-binding region
- interaction with RhoA^Val14 CLVL^− (β-galactosidase filter assay) (RhoA^Val14 CLVL^−): interacted
- interaction with α-actinin in two-hybrid system (α-actinin (HuActSkl)): hardly interacted

Substance: amino acid sequence 74-93: synthetic peptide fragment corresponding to the amino acid sequence 74-93 in SEQ ID NO: 1 (ELLLRGSSRRLDLLHQQLQE; UniProt Q16512 74-93, looked up, fragment)
- inhibition of binding of PKN to GTPγS.GST-RhoA [1]: inhibited the binding

Substance: amino acid sequence 82-103: synthetic peptide fragment corresponding to the amino acid sequence 82-103 in SEQ ID NO: 1 (RRLDLLHQQLQELHAHVVLPDP; UniProt Q16512 82-103, looked up, fragment)
- inhibition of binding of PKN to GTPγS.GST-RhoA [1]: excellent inhibitory activity; also recorded: inhibited the binding

Substance: amino acid sequence 94-113: synthetic peptide fragment corresponding to the amino acid sequence 94-113 in SEQ ID NO: 1 (LHAHVVLPDPAATHDGPQSP; UniProt Q16512 94-113, looked up, fragment)
- inhibition of binding of PKN to GTPγS.GST-RhoA [1]: inhibited the binding

Substance: lysophosphatidic acid [LAP]
- stimulation of autophosphorylation of PKN (PKN in Swiss 3T3 cells): twice

More lines, now with the values ahead:

- binding to variant RhoA^Val14 (variant RhoA^Val14): binds
- binding to wild type RhoA (wild type RhoA): binds
Substance: N-terminal region (amino acids 7-155) of PKN: amino acid sequence 7-155 in SEQ ID NO: 1 expressed as GAL4 fusion protein in yeast

- interaction with RhoA^Val14 CLVL^− (β-galactosidase filter assay) (RhoA^Val14 CLVL^−): interacted
Substance: amino acid sequence 1-538: truncated human PKN, amino acid sequence 1-538 in SEQ ID NO: 1, two-hybrid fusion

- effect on binding of full-length α-actinin to PKN ([2]; 10 μM): stimulated the binding
- concentration up to which binding activity was elevated ([2]; decreased at higher concentrations up to 100 μM): 2.5 to 10 µM
Substance: phosphatidylinositol 4,5 bisphosphate [PI4, 5P2]
